This note sets out measurements from PMC5312968, “Structure, kinetic characterization and subcellular localization of the two ribulose 5-phosphate epimerase isoenzymes from Trypanosoma cruzi” (PLoS ONE, 2017).

The stoichiometry N is the number of molecules, sites or subunits per partner or assembly.

“And” between values parts separate entries of the source, which are not always exact repeats. Equal entries are not always repeated.

The target of assay [1] is recombinant ribulose-5-phosphate epimerase 2 from Trypanosoma cruzi CL Brener clone (TcRPE2) (Trypanosoma cruzi CL Brener clone). Description: SEC-MALS; Superose 12 column with in-line multi-angle static and dynamic light scattering (SEC-FPLC-LS), room temperature, 50 mM Tris-HCl pH 7.6, 500 mM NaCl, 0.4 ml/min; mixture of oligomeric species of one protein. In general terms: Size exclusion chromatography separates by hydrodynamic size, large species first.

The next assay deals with T1, TcRPE1 (Trypanosoma cruzi, UniProt Q4DBL0).
T1 construct: gene Tc00.1047053510257.30; full-length ORF of 735 bp, pET-22b(+), C-terminal His6 tag kept, E. coli BL21 codon Plus (DE3), subunit 27 kDa, monomer to octamer mixture
T1 sequence (Q4DBL0 1-244): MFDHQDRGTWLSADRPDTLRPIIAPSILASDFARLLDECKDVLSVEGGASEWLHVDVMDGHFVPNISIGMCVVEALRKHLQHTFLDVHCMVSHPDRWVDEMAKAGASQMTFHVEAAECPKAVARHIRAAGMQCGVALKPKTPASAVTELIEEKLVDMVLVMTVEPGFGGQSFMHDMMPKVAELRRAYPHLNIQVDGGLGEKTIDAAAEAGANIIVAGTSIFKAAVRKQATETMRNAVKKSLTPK
Description: coupled enzyme assay (transketolase), spectrophotometric. Type of assay: biochemical. Conditions: pH 7.25, 30°C, triethanolamine-HCl, 0.02–2 mM substrate; biphasic kinetics, authors give no constants.

Consider “recombinant ribulose-5-phosphate epimerase 2 from Trypanosoma cruzi CL Brener clone (TcRPE2) (enzyme)”, for which the stoichiometry N in assay [1] is 2 and 4.
On to `O=C(CO)[C@H](O)[C@H](O)COP(=O)(O)O` [D-ribulose-5-phosphate], for which, on TcRPE1, the “coupled enzyme assay (transketolase), spectrophotometric” value is reported as “TcRPE1 showed a very complex kinetic pattern to increasing concentrations of Ru5P”.
